Source: the Human Domainome abundance scans (Beltran et al. 2025)
± gives the uncertainty stated by the source.

B1: Syntaxin-binding protein 4, residues 493 to 538; numbered along this chain, Q6ZWJ1 (parent)
chain: LDMDCLPYGWEEAYTADGIKYFINHVTQTTSWIHPVMSVLNLSRSE

Variants of: B1
Experiment: abundance fitness (aPCA) (normalised: wild type 0, dead -1); higher = more abundant; growth selection in yeast, the domain comes from the species named
Conditions: Homo sapiens

| Variant | abundance fitness |
| --- | --- |
| P7T | -0.483 ± 0.12 |
| N41H | -0.681 ± 0.2 |
| T29D | -0.777 ± 0.17 |
| E12M | -0.361 ± 0.12 |
| G9L | -0.636 ± 0.084 |
| D17Q | -0.571 ± 0.14 |
| M37C | 0.056 ± 0.11 |
| R44N | -0.104 ± 0.14 |
| D2A | -0.445 ± 0.084 |
| A13G | -0.746 ± 0.081 |
| C5K | 0.076 ± 0.098 |
| L42G | 0.174 ± 0.077 |
| V36C | 0.585 ± 0.11 |
| S43V | -0.44 ± 0.11 |
| R44Y | -0.109 ± 0.14 |
| S45T | -0.089 ± 0.11 |
| N41V | -0.694 ± 0.098 |
| P35Y | -0.369 ± 0.15 |
| I33Q | 0.064 ± 0.14 |
| A16F | -0.781 ± 0.1 |
| G18E | -0.681 ± 0.13 |
| H25N | 0.599 ± 0.34 |
| T15H | -0.881 ± 0.16 |
| Y8D | 0.326 ± 0.1 |

| Variant | abundance fitness |
| --- | --- |
| G9N | -0.849 ± 0.14 |
| W10S | -0.816 ± 0.096 |
| N41P | -0.38 ± 0.11 |
| N41C | -0.236 ± 0.14 |
| L6Y | -0.709 ± 0.16 |
| L1K | 0.331 ± 0.23 |
| D17T | -0.793 ± 0.12 |
| T29Y | -0.61 ± 0.13 |
| S45Q | -0.32 ± 0.2 |
| C5P | -0.291 ± 0.12 |
| Y14K | -0.907 ± 0.14 |
| H34Y | -0.689 ± 0.15 |
| H25F | -0.514 ± 0.35 |
| W32R | -0.408 ± 0.085 |
| G9K | -0.807 ± 0.11 |
| P7N | -0.714 ± 0.16 |
| T30N | -0.727 ± 0.25 |
| W32K | -0.576 ± 0.12 |
| D4I | -0.639 ± 0.17 |
| G18V | -0.867 ± 0.095 |
| N41W | -0.197 ± 0.093 |
| F22K | -0.637 ± 0.14 |
| W32Q | -0.86 ± 0.25 |
| V26Q | -0.004 ± 0.2 |

| Variant | abundance fitness |
| --- | --- |
| Y21S | -0.778 ± 0.11 |
| L42P | -0.304 ± 0.14 |
| F22L | -0.854 ± 0.094 |
| Y8I | -0.08 ± 0.094 |
| T30I | -0.936 ± 0.16 |
| G18N | -0.845 ± 0.15 |
| S38M | -0.663 ± 0.13 |
| P35M | -0.814 ± 0.14 |
| M3F | -0.069 ± 0.13 |
| L1H | -0.269 ± 0.33 |
| W10T | -0.869 ± 0.11 |
| I19S | 0.634 ± 0.083 |
| S43P | -0.064 ± 0.12 |
| T30K | -0.692 ± 0.15 |
| N41G | -0.215 ± 0.083 |
| Q28N | 0.159 ± 0.12 |
| S38C | -0.567 ± 0.14 |
| Y8S | 0.138 ± 0.075 |
| E11H | -0.657 ± 0.15 |
| T30S | 0.363 ± 0.086 |
| L1N | -0.101 ± 0.39 |
| H25V | -0.67 ± 0.11 |
| L42H | 0.52 ± 0.14 |
| I23R | -0.241 ± 0.081 |

| Variant | abundance fitness |
| --- | --- |
| Y21R | -0.962 ± 0.1 |
| T29L | -0.969 ± 0.12 |
| Y8T | -0.122 ± 0.086 |
| T15C | -1 ± 0.14 |
| P7I | -0.984 ± 0.17 |
| L6T | -0.737 ± 0.12 |
| Q28W | -0.695 ± 0.13 |
| Q28S | -0.312 ± 0.091 |
| A13Y | -0.914 ± 0.21 |
| W32F | -0.558 ± 0.16 |
| V36I | -0.598 ± 0.15 |
| G9V | -0.692 ± 0.081 |
| G18W | -0.493 ± 0.091 |
| A16W | -0.901 ± 0.17 |
| E11R | -0.537 ± 0.077 |
| S31N | -0.953 ± 0.19 |
| C5E | 0.234 ± 0.094 |
| G9T | -0.833 ± 0.099 |
| K20D | -0.743 ± 0.14 |
| D2T | -0.334 ± 0.12 |
| M37Q | 0.397 ± 0.12 |
| V26I | -0.038 ± 0.094 |
| V26K | -0.29 ± 0.27 |
| L40N | 0.04 ± 0.15 |

| Variant | abundance fitness |
| --- | --- |
| S43F | -0.531 ± 0.12 |
| S43D | 0.129 ± 0.12 |
| E11A | -0.747 ± 0.091 |
| Y21C | -0.908 ± 0.14 |
| G9D | -0.604 ± 0.086 |
| D2V | -0.576 ± 0.086 |
| A16V | -0.57 ± 0.095 |
| T29Q | -0.956 ± 0.39 |
| L42D | 0.022 ± 0.14 |
| M3C | 0.117 ± 0.089 |
| E46Q | 0.008 ± 0.5 |
| T30E | -0.857 ± 0.13 |
| A13E | -0.923 ± 0.11 |
| P7M | -0.793 ± 0.12 |
| M37H | -0.15 ± 0.17 |
| C5G | -0.04 ± 0.076 |
| N24V | -0.74 ± 0.11 |
| P7A | -0.646 ± 0.091 |
| P7Q | -0.903 ± 0.14 |
| T27E | -0.672 ± 0.13 |
| A16S | -0.011 ± 0.076 |
| T15G | -0.561 ± 0.082 |
| M3Y | -0.458 ± 0.12 |
| Y14L | -0.689 ± 0.083 |

| Variant | abundance fitness |
| --- | --- |
| M37G | 0.059 ± 0.08 |
| P35V | -0.882 ± 0.1 |
| Y8G | -0.028 ± 0.073 |
| E11W | -0.696 ± 0.09 |
| M37E | 0.327 ± 0.095 |
| S31T | 0.199 ± 0.09 |
| S45K | -0.169 ± 0.18 |
| A16T | -0.408 ± 0.088 |
| Y14T | -0.522 ± 0.1 |
| E12R | -0.804 ± 0.081 |
| D4K | -0.543 ± 0.11 |
| L6P | -0.608 ± 0.11 |
| A13R | -0.501 ± 0.08 |
| T29F | -0.674 ± 0.12 |
| V39F | 0.072 ± 0.15 |
| N24E | -0.715 ± 0.14 |
| P35S | -0.661 ± 0.11 |
| I33D | 0.272 ± 0.15 |
| V39Y | -0.851 ± 0.26 |
| H25K | 0.25 ± 0.15 |
| I19K | 0.791 ± 0.12 |
| D4G | -0.348 ± 0.077 |
| R44I | -1.3 ± 0.33 |
| Y21A | -0.952 ± 0.12 |

| Variant | abundance fitness |
| --- | --- |
| D2Q | -0.48 ± 0.12 |
| T27A | -0.513 ± 0.096 |
| S38W | -0.264 ± 0.1 |
| D2M | -0.334 ± 0.14 |
| N24L | -0.932 ± 0.16 |
| P7H | -0.669 ± 0.15 |
| Y14V | -0.411 ± 0.08 |
| Y21D | -0.989 ± 0.18 |
| R44G | 0.377 ± 0.077 |
| Y21G | -0.873 ± 0.092 |
| F22I | -0.728 ± 0.16 |
| N41K | -0.635 ± 0.15 |
| P7F | -0.616 ± 0.13 |
| R44Q | -0.063 ± 0.13 |
| T29C | 0.271 ± 0.12 |
| K20Q | -0.897 ± 0.13 |
| G9C | -0.892 ± 0.12 |
| T30Y | -1 ± 0.32 |
| S45F | -0.759 ± 0.18 |
| L40V | -0.273 ± 0.096 |
| D17R | -0.697 ± 0.085 |
| V26L | -0.482 ± 0.1 |
| L42M | -0.046 ± 0.11 |
